Test results taken from patent US20210002656.

Biological target: T1, I-SceI (UniProt P03882)
T1 sequence: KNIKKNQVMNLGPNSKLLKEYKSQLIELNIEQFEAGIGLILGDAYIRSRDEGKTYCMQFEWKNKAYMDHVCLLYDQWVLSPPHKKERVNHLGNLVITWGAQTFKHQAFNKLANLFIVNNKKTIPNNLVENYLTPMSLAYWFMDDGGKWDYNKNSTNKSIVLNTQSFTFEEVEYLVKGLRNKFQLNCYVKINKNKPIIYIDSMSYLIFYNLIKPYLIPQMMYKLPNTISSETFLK
Test: cell_activity
Settings: protein delivered to N. tabacum protoplasts, SSA assay; 0.49% when delivered as DNA; 2.4% sequential delivery

Substance: I-SceI site in YFP SSA plasmid
- activity: 4.4 % YFP
